Data reported in patent US20100297712A1.

Key:
[1] = molecular target: vitamin D3 hydroxylase (VDH) of Pseudonocardia autotrophica NBRC12743 strain (Pseudonocardia autotrophica) (UniProt C4B644); experiment: cell-based or functional assay
[2] = molecular target: T1, vitamin D3 hydroxylase (VDH) of Pseudonocardia autotrophica NBRC12743 strain
T1 chain: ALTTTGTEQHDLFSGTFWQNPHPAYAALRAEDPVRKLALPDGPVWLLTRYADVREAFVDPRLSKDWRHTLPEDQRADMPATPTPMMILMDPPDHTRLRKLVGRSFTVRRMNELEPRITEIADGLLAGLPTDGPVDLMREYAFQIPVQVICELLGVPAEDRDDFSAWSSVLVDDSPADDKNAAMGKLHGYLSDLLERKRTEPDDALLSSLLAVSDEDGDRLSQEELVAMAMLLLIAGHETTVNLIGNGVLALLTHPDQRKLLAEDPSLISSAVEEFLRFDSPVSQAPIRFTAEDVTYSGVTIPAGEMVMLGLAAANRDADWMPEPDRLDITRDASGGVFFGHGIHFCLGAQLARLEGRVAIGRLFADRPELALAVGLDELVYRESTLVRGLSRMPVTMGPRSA

[3] = molecular target: T2, ferredoxin (ThcC) derived from Rhodococcus erythropolis strain NI86/21, P43493
T2 chain: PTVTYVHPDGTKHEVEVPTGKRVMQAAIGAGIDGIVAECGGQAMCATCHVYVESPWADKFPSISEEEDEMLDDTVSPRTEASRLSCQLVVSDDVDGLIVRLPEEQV

With “ferredoxin (ThcC) derived from Rhodococcus erythropolis strain NI86/21 (from UniProt P43493 2-107)” the relative activity per expressed VDH, against the transformant expressing VDH solely [1] was 6 fold.

B1: ferredoxin reductase (ThcD) derived from Rhodococcus erythropolis strain NI86/21 (protein)
chain: SIVIIGSGQAGFEAAVSLRSHGFSGTITLVGDEPGVPYQRPPLSKAYLHSDPDRESLALRPAQYFDDHRITLTCGKPVVRIDRDAQRVELIDATAIEYDHLILATGARNRLLPVPGANLPGVHYLRTAGEAESLTSSMASCSSLVVIGAGFIGLEVAAAARKKGLDVTVVEAMDRPMARALSSVMSGYFSTAHTEHGVHMRLSTGVKTINAADGRAAGVTTNSGDVIHADAVVVGIGVVPNIELAALTGLPVDNGIVVDEYLRTPDENISAIGDCAAYPIPGKAGLVRLESVQNAVDQARCLAAQLTGTSTHYRSVPWFWSEQYESKLQMAGLTAGADTHVVRGSVDSGVFSIFCFLGTRLLGVESVNKPRDHMAARKILATEMPLTPEQAADTDFDLKLAIARHKDTHKDEVASADIGERQVVAS
With B1 the Activity (mmol/min/mol of VDH), VD3 conversion by Rhodococcus erythropolis transformant pTipQT-VDH-thcCD (mmol/min/mol of VDH) [2] was 119 and the relative activity per expressed VDH, against the transformant expressing VDH solely [2] was 6 fold.

B2: vitamin D3 hydroxylase (VDH) of Pseudonocardia autotrophica NBRC12743 strain (protein)
chain: T1 chain
In the case of B2, the Activity (mmol/min/mol of VDH), VD3 conversion by Rhodococcus erythropolis transformant pTipQT-VDH-thcCD (mmol/min/mol of VDH) [3] is reported as 119.
